Experimental data taken from the supplement of paper PMC10126150.
± gives the standard deviation of the averaged measurements.

Test system: ATP
Test: switch fluorescence ratio, 500 uM ATP over buffer (Cy3 cluster intensity, sum of 5 cycles each) (fold (ratio)); higher = stronger signal-on switching upon ATP binding; sequences stand for … in TCGTCGGCAGCGTCAGATGTGTATAAGAGACAGTTTTTTTTTTTTTTTTTTTTTTTTT…TC
Details: aptamer strand: ATP DNA aptamer (quencher-CACCTGGGGGAGTATTGCGGAGGAAGG + anchor), 100 nM annealed; ATP concentration: 500 uM
Method in brief: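 The fluorescence ratio divides summed target-cycle Cy3 intensity by summed buffer-cycle Cy3 intensity for each cluster and is averaged per switch-domain sequence. Cy3-labelled switching-strand clusters on a modified Illumina MiSeq flow-cell were annealed to 100 nM quencher-labelled ATP aptamer, then imaged in selection buffer and again after 15 min with 500 uM ATP at 22 °C. Five such cycles were run, with NaOH stripping and re-annealing between them, and clusters outside 100-1000 RFU were excluded.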
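Note: ATP exposure 15 min at 22 °C before imaging.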

Sequence | switch fluorescence ratio
GCATTATATG | 1 ± 0.03
GTAATCGCAA | 2.65 ± 0.15
GAAAAAGTCG | 0.997 ± 0.042
GGGACTTACC | 1.08 ± 0.02
GAAGTCTTAA | 1 ± 0.033
ATTTTGAAGA | 1.01 ± 0.032
TGCATATGGG | 0.978 ± 0.0058
TTGATAATAG | 1 ± 0.024
GCACGAGGGG | 0.979 ± 0.047
AAGGGGTTCG | 1.05 ± 0.023
ATGCTGGGGG | 0.994 ± 0.013
TGGGATTATG | 0.976 ± 0.0098
ACTTGCGGCT | 1 ± 0.05
ATGAATATGC | 1.04 ± 0.043
TAGCCCCCAG | 1.6 ± 0.78
TCAGTCATTA | 0.989 ± 0.016
CTATAACGGG | 0.981 ± 0.0067
TATCTTGCAT | 0.97 ± 0.048
TTGGTATACG | 0.997 ± 0.026
AGCACAGGGG | 0.985 ± 0.045
TTGTGCGGGT | 1.02 ± 0.049
TCGTCATGTT | 0.999 ± 0.015
GATAGTAGTT | 0.9851 ± 0.0096

Sequence | switch fluorescence ratio
ACCGTAGGGG | 0.973 ± 0.016
CCAATCACGG | 1.09 ± 0.012
CAGTCCATTA | 1.011 ± 0.0093
AGGGAAGGGG | 1.1 ± 0.17
GTTTATGCCA | 0.997 ± 0.029
AGTTTGTTCG | 0.953 ± 0.022
GGGGCTTGCG | 0.948 ± 0.045
ACTCCTTGCT | 1.24 ± 0.018
TGGGTTATGC | 0.984 ± 0.018
GGGGGATTTC | 1.12 ± 0.26
CGTGGTGGGT | 0.963 ± 0.025
GATGGGACAG | 1.01 ± 0.0019
AGGTGGGGCT | 0.9811 ± 0.0089
CGGTTGTTTT | 1.023 ± 0.0065
TGTTTTAGT | 0.992 ± 0.024
AGGTTAAAAT | 1.03 ± 0.024
AGAGTTCCTG | 1.01 ± 0.028
GGGTACGTTT | 0.97231 ± 0.00073
ACGTAAAGAC | 1.17 ± 0.23
ATTTTGAACA | 1.019 ± 0.0062
GTTTTAAATG | 0.975 ± 0.016
CGGTAGGTTT | 0.9898 ± 0.0057
TCTTTAATGG | 1.01 ± 0.042

Sequence | switch fluorescence ratio
ATCCCAGGTA | 2.009 ± 0.0073
GCTGGGTCTT | 1.03 ± 0.023
CGTGAAAAGA | 0.986 ± 0.033
TAGCGGGGGA | 1.04 ± 0.019
AAAGGGGGGC | 1 ± 0.057
TTGGGAATTT | 0.975 ± 0.019
CGTAGTATAG | 1.24 ± 0.017
TTAGAGAAAA | 1.03 ± 0.079
AGATAGTTGG | 0.99 ± 0.038
TAATATTTAG | 0.9863 ± 0.0031
TTTTGACGTT | 1.04 ± 0.042
CGTATCATTG | 0.997 ± 0.042
TTCCAAAAAA | 1.1 ± 0.04
TGCTAGTACC | 1.054 ± 0.0036
TGTTGGAGGG | 1.04 ± 0.027
TTTACTATTT | 0.988 ± 0.035
TCTGTTTTAT | 0.976 ± 0.017
TATTGTGCGG | 1.01 ± 0.037
CGTCTAGAA | 0.963 ± 0.048
CCTCGTGTTG | 1.02 ± 0.022
TATTGGATTA | 1.01 ± 0.026
TTAGAAGGTT | 1 ± 0.026
AGCGAAATCT | 1.08 ± 0.03

Sequence | switch fluorescence ratio
TTTCCTATAA | 1.13 ± 0.21
AGCTCCTCAT | 1.1 ± 0.03
CGGCGGCCCT | 1.005 ± 0.0092
GGCAATATTT | 1.2 ± 0.061
TCAGTTGGGA | 0.9697 ± 0.0062
AAGAAGTCCT | 0.983 ± 0.034
AATAATTGGG | 0.9967 ± 0.0012
GCCCTTGTTT | 1.03 ± 0.046
CTCGTAATCT | 1.571 ± 0.007
ATAAGGTCAA | 0.995 ± 0.047
TTTTGGGTTG | 1.03 ± 0.076
GAGCTCCAGA | 1.0093 ± 0.00081
GCAGGACGAC | 2.38 ± 0.49
AATTGGTCAT | 1 ± 0.018
CTAATCATAA | 1 ± 0.052
CAATTGTCGT | 0.991 ± 0.033
CTGATGTCTA | 0.977 ± 0.022
AATTCCGGCG | 1.12 ± 0.098
ATAAAAAAGG | 1.01 ± 0.017
TGAGCAGCGG | 1.01 ± 0.044
TGGGATAGAT | 0.996 ± 0.027
ACATTTATGT | 0.9939 ± 0.0052
GAATGACCGT | 1.01 ± 0.024

Sequence | switch fluorescence ratio
TTGGATGGGA | 1 ± 0.034
TTGAGTTGGG | 0.973 ± 0.041
TAAAATTATG | 0.974 ± 0.019
TAGGACAGCG | 0.969 ± 0.078
GCTTTATGAA | 1.02 ± 0.054
TTTGTTTATC | 1.02 ± 0.057
TATAGGCCGG | 0.991 ± 0.02
GAGTATGGGA | 0.983 ± 0.034
AAGGGTCAAA | 0.985 ± 0.048
GATTTGGTCA | 0.9976 ± 0.0034
AGGGTCGCTA | 1 ± 0.014
GTTTTCGTGG | 0.995 ± 0.021
CAGTGGACGG | 0.971 ± 0.042
AGACTTTTAT | 0.976 ± 0.031
GCTTGGATCG | 0.993 ± 0.022
TTTGAACGCT | 1.06 ± 0.015
AGAGCAGGGA | 0.97 ± 0.064
CCTGGGCCGG | 1.06 ± 0.058
TAGCTTTTTA | 1 ± 0.026
ATTAATTGTG | 1.01 ± 0.018
CGGAGACGGT | 0.9958 ± 0.0078
GTTCCGGCTG | 1.02 ± 0.023
GGAACTGTCT | 1.01 ± 0.013

Sequence | switch fluorescence ratio
CGGGGATCTA | 1 ± 0.018
CCATAGGAAT | 1.06 ± 0.023
CATTGCGGGA | 1.02 ± 0.024
GACTTTATGG | 0.99 ± 0.035
TTTATGTCTG | 1.01 ± 0.039
TGTTAATAAC | 1 ± 0.052
GGAGGGAGGG | 1.02 ± 0.059
ATAAGGGCTT | 0.929 ± 0.11
TTGGGTTGTG | 1.01 ± 0.041
AAAACTCCGA | 1.07 ± 0.097
AAAATGGTGT | 1.002 ± 0.0083
AGTTGGGTCG | 1.004 ± 0.0056
GGGTAAGCCG | 0.918 ± 0.02
TTGAAGGTGG | 1.08 ± 0.12
TCACATAGTT | 1.01 ± 0.0061
ATACTAAGTG | 1.01 ± 0.02
CGTTTTTAGA | 0.967 ± 0.031
GTGTGACGGT | 0.949 ± 0.019
GGACAGCGCG | 1 ± 0.07
GTATGGGTTT | 0.975 ± 0.012
TTATTTTGGG | 0.99 ± 0.037
TAAAACTTTT | 1.02 ± 0.043
AGTCGGGTCT | 1.05 ± 0.083

Sequence | switch fluorescence ratio
CGATGTGTGG | 0.986 ± 0.015
GTTCGACGGC | 1.05 ± 0.095
ATCGGAGGCA | 1.0107 ± 0.00084
TCCATCGCTT | 1.6 ± 0.79
TTGGGAGTTA | 0.99379 ± 0.00026
TGGTGTGACA | 0.995 ± 0.065
GATGGACAGC | 1.04 ± 0.041
GAAGGGACGT | 1.07 ± 0.026
GAATTCAAGG | 1.01 ± 0.082
TTTGTGTTG | 0.977 ± 0.024
GTCAAATATG | 0.9678 ± 0.0028
CTTGCCTCAG | 1.021 ± 0.0076
AATAGGGTTC | 0.982 ± 0.025
AGGGGGATAG | 0.967 ± 0.052
TTTATTACTT | 1 ± 0.029
GCGTTGTTCG | 0.99 ± 0.044
TTCGAACTCG | 1.011 ± 0.0043
GGGGAGTCGA | 1.03 ± 0.068
CCCGATTTTT | 0.993 ± 0.017
